The source of these data is publication PMC6366716.

In this assay the target is Fbw7α (UniProt Q969H0). Put plainly: anti-HA co-IP, anti-FLAG blot. As to conditions: reference: wild-type HA-SV40 LT; sites T701.

For “SV40 LT (from UniProt P03070) HA-SV40 LT T701A”, the “binding against the reference” value is listed as “lost”.
